Assay results taken from patent US5759769.

Target: CLTB-106 (negative control)
Assay: ELISA, peptide at 1 ug per well, 2F5 at 40 ng per well; negative control

## human neutralizing monoclonal antibody 2F5
  Absorbance (450 nm) (absorbance at 450 nm): 0.07
